{
  "source": "patent US20050148069A1",
  "about": "“IGF-1 instructs multipotent adult CNS neural stem cells to an oligodendroglial lineage” (priority 2003, published 2005)",
  "test_system": "adult hippocampus-derived neural progenitor cells",
  "assay": "in vitro differentiation analysis of neural progenitor cells (immunocytochemistry for lineage markers)",
  "type": "cell-based, rat",
  "method": "The neural progenitor cells isolated from the hippocampus of female Fischer 344 used in this study have been characterized previously (Gage et al., 1995; Palmer et al., 1997). The whole brain-derived neural stem cells from PIO ICR mice were isolated and cultured according to the methods as described, with slight modifications. Cells were cultured as previously described (Gage et al., 1995; Ray et al., 1993). Cells between passages 10 and 20 were used for in vitro differentiation analyses. To induce differentiation, cells were plated into 4-well chamber slides at a density of 55,000-75,000 cells per well and were allowed to proliferate in N2-supplemented (Invitrogen) DMEM:F12 (Omega Scientific) medium containing 20 ng/ml FGF-2 (PeproTech, Inc.) for 24 hours. FGF-2 was then withdrawn and cells were subsequently treated with differentiation media. […] For IGF-induction experiments, cells were trypsinized, washed with 1× PBS, and plated into insulin-free N2 medium. […] In some cultures, BrdU (2.5 μM, Sigma) was added to label dividing cells, and Q-VD-OPh (2 μM, Enzyme Systems Products) was added to prevent apoptosis.\nCells were fixed with 4% paraformaldehyde, followed by immunocytochemical staining as described (Palmer et al., 1999). Labeled cells were visualized using a Nikon E800 upright microscope or a Nikon E600 inverted microscope (Nikon Inc.) and a Spot RT CCD camera (Diagnostic Instruments Inc.). 4′,6-diamidino-2-phenylindole (DAPI) was used to identify individual cells. Quantification of cell phenotypes was with StereoInvestigator (MicroBrightfield Inc.); for each marker, 500-1000 cells were sampled systematically from standardized fields at 40×magnification. For quantification of live/dead cells, images were taken of cultures live-stained with propidum iodide (1 μg/ml; Molecular Probes) and Hoescht 33342 (1 μg/ml; Sigma) at 10×magnification, and cells were counted using Image-Pro (Media Cybernetics). The following primary antibodies were used: rabbit anti-Tuj1 (1:7500;Covance), mouse anti-RIP (1:25-1:75; Hybridoma Bank); guinea pig anti-GFAP (1:500-1:2500; Advanced Immunochemical, Inc.); rabbit anti-MBP (1:500; Chemicon International Inc.), rat anti-BrdU (1:400; Accurate). Secondary antibodies were all from Jackson ImmunoResearch and used at 1:250 dilution. The detection of BrdU in cultured cells required treatment in 2 N HCL at 37° C. for 30 min (Palmer et al., 1999). All experiments were independently replicated at least 3 times.",
  "data": [
    {"molecule": "Noggin: extracellular protein that binds BMP ligands, BMP antagonist (protein, UniProt Q13253 28-232, looked up) Noggin: QHYLHIRPAPSDNLPLVDLIEHPDPIFDPKEKDLNETLLRSLLGGHYDPGFMATSPPEDRPGGGGGAAGGAEDLAELDQLLRQRPSGAMPSEIKGLEFSEGLAQGKKQRLSKKLRRKLQMWLWSQTFCPVLYAWNDLGSRFWPRYVKVGSCFSKRSCSVPEGMVCKPSKSVHLTVLRWRCQRRGGQRCGWIPIQYPIISECKCSC", "values": [
      {"measurement": "differentiation or survival effects of Noggin alone", "setting": "500 ng/ml Noggin alone, insulin-free media", "value": "did not display any enhanced differentiation or survival effects"},
      {"measurement": "reversal of BMP2 inhibition of oligodendrocyte differentiation", "setting": "Noggin 500 ng/ml with BMP2 50 ng/ml and IGF-I 500 ng/ml", "value": "efficiently reversed the inhibitory effects of BMP signaling"},
      {"measurement": "percentage of oligodendrocytes vs IGF-I alone", "setting": "Noggin 500 ng/ml with IGF-I 20-100 ng/ml", "value": "significant increase in the percentage of oligodendrocytes"},
      {"measurement": "percentage of RIP+ oligodendrocytes vs IGF-I alone", "setting": "Noggin 500 ng/ml with IGF-I 500-1000 ng/ml", "value": "did not result in a significant change"}
    ]}
  ]
}
